Experimental data published in patent publication US20200155643.

Target: T1, Recombinant human protein C inhibitor (PCI, SERPINA5), P05154
T1 chain: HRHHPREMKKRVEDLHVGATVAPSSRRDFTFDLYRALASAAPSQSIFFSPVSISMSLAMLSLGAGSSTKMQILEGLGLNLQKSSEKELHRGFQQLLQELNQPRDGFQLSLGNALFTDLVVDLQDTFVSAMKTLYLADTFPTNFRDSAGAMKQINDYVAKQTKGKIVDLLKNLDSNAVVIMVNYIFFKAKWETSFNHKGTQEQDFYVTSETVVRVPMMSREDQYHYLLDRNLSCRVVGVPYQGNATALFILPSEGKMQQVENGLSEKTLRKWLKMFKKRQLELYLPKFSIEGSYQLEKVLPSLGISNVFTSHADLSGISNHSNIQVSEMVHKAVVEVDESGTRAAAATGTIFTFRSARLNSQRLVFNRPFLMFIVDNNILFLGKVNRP

B1: Recombinant human matriptase (protein)
chain: GSDEKDCDCGLRSFTRQARVVGGTDADEGEWPWQVSLHALGQGHICGASLISPNWLVSAAHCYIDDRGFRYSDPTQWTAFLGLHDQSQRSAPGVQERRLKRIISHPFFNDFTFDYDIALLELEKPAEYSSMVRPICLPDASHVFPAGKAIWVTGWGHTQYGGTGALILQKGEIRVINQTTCENLLPQQITPRMMCVGFLSGGVDSCQGDSGGPLSSVEADGRIFQAGVVSWGDGCAQRNKPGVYTRLPLFRDWIKENTGV
cleavage of PCI (anti-PCI immunoblot): resulted in the appearance of cleaved forms of PCI
